For assay [1], the target named is T1, MinC^C/MinD complex (MalE-MinC^C with MinD on phospholipid vesicles) (E. coli, UniProt P18196 116-231; P0AEZ3 1-270).
T1 sequence (looked up) 1: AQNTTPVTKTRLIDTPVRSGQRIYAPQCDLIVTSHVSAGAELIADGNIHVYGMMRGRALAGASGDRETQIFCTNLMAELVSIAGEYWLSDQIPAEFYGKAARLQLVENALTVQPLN
T1 sequence (looked up) 2: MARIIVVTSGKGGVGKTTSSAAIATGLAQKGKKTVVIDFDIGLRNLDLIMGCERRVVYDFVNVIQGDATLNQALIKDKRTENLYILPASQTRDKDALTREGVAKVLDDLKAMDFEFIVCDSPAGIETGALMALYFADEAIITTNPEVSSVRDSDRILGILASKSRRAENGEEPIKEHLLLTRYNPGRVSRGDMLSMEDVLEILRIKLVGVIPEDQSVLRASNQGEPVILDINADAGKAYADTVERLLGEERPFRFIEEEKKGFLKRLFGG
Description: co-sedimentation.

For the next assay, the target named is T2, MinD (E. coli, UniProt P0AEZ3 1-270).
T2 sequence (looked up): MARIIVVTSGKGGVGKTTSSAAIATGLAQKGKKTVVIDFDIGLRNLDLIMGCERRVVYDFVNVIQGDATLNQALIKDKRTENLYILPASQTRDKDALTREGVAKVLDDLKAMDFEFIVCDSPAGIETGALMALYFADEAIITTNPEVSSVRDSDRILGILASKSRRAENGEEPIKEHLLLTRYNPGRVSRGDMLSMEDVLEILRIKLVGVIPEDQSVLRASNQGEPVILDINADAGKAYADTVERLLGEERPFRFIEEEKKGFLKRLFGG
Description: co-sedimentation.

B1: WT FtsZ (natural protein, E. coli, UniProt P0A9A6 1-383, looked up)
chain: MFEPMELTNDAVIKVIGVGGGGGNAVEHMVRERIEGVEFFAVNTDAQALRKTAVGQTIQIGSGITKGLGAGANPEVGRNAADEDRDALRAALEGADMVFIAAGMGGGTGTGAAPVVAEVAKDLGILTVAVVTKPFNFEGKKRMAFAEQGITELSKHVDSLITIPNDKLLKVLGRGISLLDAFGAANDVLKGAVQGIAELITRPGLMNVDFADVRTVMSEMGYAMMGSGVASGEDRAEEAAEMAISSPLLEDIDLSGARGVLVNITAGFDLRLDEFETVGNTIRAFASDNATVVIGTSLDPDMNDELRVTVVATGIGMDKRPEITLVTNKQVQQPVMDRYQQHGMAPLTQEQKPVAKVVNDNAPQTAKEPDYLDIPAFLRKQAD
On to B1, for which the binding result in assay [1] was “binds”.

B2: MalE-MinC^C (domain or fragment, E. coli, UniProt P18196 116-231, looked up)
chain: AQNTTPVTKTRLIDTPVRSGQRIYAPQCDLIVTSHVSAGAELIADGNIHVYGMMRGRALAGASGDRETQIFCTNLMAELVSIAGEYWLSDQIPAEFYGKAARLQLVENALTVQPLN
On to B2, for which the binding result in the assay with MinD is listed as “binds”.

For the origin of these results see PMC2759774 (Molecular microbiology, 2009).
